{
  "source": "paper PMC11570498",
  "about": "“A promiscuous mechanism to phase separate eukaryotic carbon fixation in the green lineage” (Nature Plants, 2024)",
  "binders": {"B1": {"name": "Ulva mutabilis Rubisco (UmRubisco) (complex)", "chain 1": "GVKDYRLTYYTPDYQVKDTDILAAFRMTPQPGVPAEEAGAAVAAESSTGTWTTVWTDGLTSLDRYKGRCYDIEPLGEDDQYIAYIAYPLDLFEEGSVTNLFTSIVGNVFGFKALRALRLEDLRIPPAYVKTFQGPPHGIQVERDKLNKYGRGLLGCTIKPKLGLSAKNYGRAVYECLRGGLDFTKDDENVNSQPFMRWRDRFLFVAEAIYKSQSETGEVKGHYLNATAGTCEEMMERGQFAKDLGVPIVMHDYITGGFTANTTLAHFCRASGLLLHIHRAMHAVIDRQRNHGIHFRVLAKILRMSGGDHLHSGTVVGKLEGEREITLGFVDLMRDDYIEKDRSRGIYFTQDWVSLPGTMPVASGGIHVWHMPALVEIFGDDACLQFGGGTLGHPWGNAPGAAANRVALEACTQARNEGRDLASEGGDVIRAA", "chain 2": "MRVWTPHNNKMFETFSFLPPLSHGEIARQVDYIIANGWTSCLEFADSDCAYVQDKANIRFGNSASCNYYDNRYWTMWKLPMFGCTNPNEVLGEIDSCKRAFPESYIRLVAFDNIAQCQTIGFLVNRPPRSGDFQSPENRSVA"}},
  "key": {"[1]": {"biological_target": "T1, CsLinker α3 fragment (residues 142–207) (Chlorella sorokiniana UTEX1230)", "T1 construct": "CsLinker (CSI2_123000012064), Chlorella sorokiniana UTEX1230, residues 142–207: one whole repeat centred on predicted α-helix 3; residues numbered by their position in the full-length CsLinker; From the plasmid His-mEGFP-TEV-α3-TEV-MBP-His; also called single helix α3 fragment; source: E. coli BL21 (DE3), purified (IMAC, TEV cleavage, second IMAC, SEC); not shown: His6, N-terminal, cleaved; …", "assay": "SPR; Rubisco immobilised as bait, fragments as analyte (prey); Biacore T100/T200, 25 °C; analyte injected at 15 μl/min for 30 s, 360 s dissociation; fit of y = Bmax·x/(KD + x); apparent KD; triplicate", "conditions": "both partners purified"}, "[2]": {"biological_target": "T2, CsLinker α3–α4 fragment (residues 142–272) (Chlorella sorokiniana UTEX1230)", "T2 construct": "CsLinker (CSI2_123000012064), Chlorella sorokiniana UTEX1230, residues 142–272: two repeats with predicted α-helices 3 and 4; residues numbered by their position in the full-length CsLinker; From the plasmid His-mEGFP-TEV-α3–α4-TEV-MBP-His; also called α3–α4 double repeat fragment; source: E. coli BL21 (DE3), purified (IMAC, TEV cleavage, second IMAC, SEC); not shown: His6, N-terminal, cleaved; …", "assay": "SPR; Rubisco immobilised as bait, fragments as analyte (prey); Biacore T100/T200, 25 °C; analyte injected at 15 μl/min for 30 s, 360 s dissociation; fit of y = Bmax·x/(KD + x); apparent KD; triplicate", "conditions": "both partners purified"}},
  "data": [
    {"binder": "B1", "values": [
      {"measurement": "Kd", "setting": "[1]", "value": 162, "unit": "µM"},
      {"measurement": "Kd", "setting": "[2]", "value": 1.56, "unit": "µM"}
    ]}
  ]
}
